Data reported in patent US20250122303A1, “TREATMENT AND PREVENTION OF CANCER USING HER3 ANTIGEN-BINDING MOLECULES” (Hummingbird Bioscience Pte. Ltd., priority 2021, published 2025).

How the values were obtained:
[1] = target: T1, human HER3 (HEK293 HER3 O/E cells) (Homo sapiens, UniProt P21860); assay: Cell surface antigen-binding by flow cytometry
T1 construct: expressed in transfected cells; host or cells: HEK293
Method: The cells were washed thrice with FACS buffer (PBS with 5 mM EDTA and 0.5% BSA) and resuspended in FITC-conjugated anti-FC antibody (Invitrogen, USA) for 40 min at 2-8° C. Cells were washed again and resuspended in 200 μL of FACS flow buffer (PBS with 5 mM EDTA) for flow cytometric analysis using MACSQuant 10 (Miltenyi Biotec, Germany). After acquisition, all raw data were analyzed using Flowlogic software. Cells were gated using forward and side scatter profile percentage of positive cells was determined for native and overexpressing cell populations.
The cells were washed with buffer (PBS with 2 mM EDTA and 0.5% BSA) and resuspended in FITC-conjugated anti-FC antibody (Invitrogen, USA) at 10 μg/ml for 20 min at 4° C. Cells were washed again and resuspended in 200 μL of FACS flow buffer (PBS with 5 mM EDTA) for flow cytometric analysis using MACSQuant 10 (Miltenyi Biotec, Germany). Unstained WT and transfected HEK293 cells were included in the analysis as negative controls. After acquisition, all raw data were analyzed using Flowlogic software. Cells were gated using forward and side scatter profile percentage of positive cells was determined for native and overexpressing cell populations.

[2] = target: hHER3 (Homo sapiens, UniProt P21860); assay: BLI binding to HER3 in absence of NRG1 ('closed' conformation)
Method: (§1) In further experiments, anti-HER3 antibodies were analysed in order to determine the affinity of binding to human HER3 in the context of a human HER3:human NRG1 complex (that is, HER3 provided in the ligand-bound, ‘open’ conformation), as compared to the affinity of binding to human HER3 in the absence of NRG1 complex (that is, HER3 provided in the unbound, ‘closed’ conformation).
(§2) Binding of anti-HER3 antibodies to human HER3 was evaluated by BLI. Briefly, anti-Human IgG Capture (AHC) sensors (ForteBio) were loaded with anti-HER3 IgG antibodies (25 nM). Kinetic measurements were performed in absence or presence of NRG1. NRG1 was used at 1:1 molar ratio with HER3 wherein the complex was allowed to form at RT for 2 h. His-tagged human HER3 or HER3-NRG1 complexes were loaded to antibody coated AHC sensors at different concentrations for 120 s, followed by a 120 s dissociation time. All measurements were performed at 25° C. with agitation at 1000 rpm. Sensorgrams were referenced for buffer effects and then analyzed using the Octet QK384-software (ForteBio). Kinetic responses were globally fitted using a one-site binding model to obtain values for association (Kon), dissociation (Koff) rate constants and the equilibrium dissociation constant (KD).

[3] = target: human HER3:human NRG1 complex (Homo sapiens, UniProt P21860); assay: BLI binding to HER3-NRG1 complex ('open' conformation); conditions: presence of NRG1 (1:1 molar ratio)
Method: as §1, §2

[4] = tested on: HEK293 HER3, HCC95, N87 and OVCAR8 cells; assay: Antibody internalisation, pHrodo imaging; format: cell-based, human; conditions: 24 hours
Method: Briefly, 100,000 HEK293 cells engineered to express HER3, HCC95, N87 or OVCAR8 cells were seeded in wells of 96-well tissue culture plates and cultured overnight at 37° C. in 5% CO2. […] The cells in culture were imaged every 30 min for 24 hours, in 4 different fields of each well. The maximum signal intensity in the FITC channel of each field was quantified at 24 hours.

[5] = clinical, literature, cited from earlier work
[6] = cited from earlier work

Row | Substance | extent of binding to human HER3-expressing cells ([1]; 10 μg/ml antibody) | extent of binding to human HER3-expressing cells ([1]; 20 μg/ml antibody) | affinity of binding to human HER3 [2] | affinity of binding to human HER3 [3] | internalization ([4]; HEK293 cells overexpressing HER3, 120 nM) | internalization ([4]; OvCar8 cells, 120 nM) | Dose where Saturating PK was observed [5] | T½ (terminal half life) [5] [h] | Cmax (μg/ml) normalised to per mg/kg dosed [5] [µg/mL] | gastrointestinal toxicity DLTs ([6]; human, in vivo) | hypokalaemia and hypomagnesemia DLTs ([6]; in the presence of diarrhoea)
1 | LJM716: anti-HER3 antibody binding domains II and IV, locks HER3 in inactive conformation (Garner et al.) [reference compound] | bind to human HER3-expressing cells to a similar extent | bind to human HER3-expressing cells to a similar extent | subpicomolar affinity | dramatically reduced | significant internalization | Modest to moderate internalization | 10 to 40 mg/kg | 220 to 336 | 19 to 22 | DLTs were reported | DLTs were reported
2 | RG7116 | – | – | – | – | – | – | 400 to 2000 mg | 220 to 288 | 24 to 41 | – | –
